{"source": "patent US20240066131A1", "about": "(Protagonist Therapeutics, Inc., priority 2020, published 2024)", "note": "Positions of bridges follow the written chain, without caps; N, C: chain ends. Non-standard residues stand in square brackets, D forms with d. Groups on a side chain read outwards from the residue. *: point of attachment. PEG12 = NCCOCCOCCOCCOCCOCCOCCOCCOCCOCCOCCOCCOCCC(=O)O; C18 diacid = O=C(O)CCCCCCCCCCCCCCCCC(=O)*; Dip = N[C@H](C(=O)O)C(c1ccccc1)c1ccccc1; Palmitoyl = CCCCCCCCCCCCCCCC(=O)*; β3hF = N[C@H](CC(=O)O)Cc1ccccc1; Isovaleryl = CC(C)CC(=O)*; Abu = CC[C@H](N)C(=O)O; AEEA = NCCOCCOCC(=O)O; Ahx = NCCCCCC(=O)O", "data": [{"target": "T1, ferroportin endogenously expressed on T47D cells (HTB 133, ATCC) (human, UniProt Q9NP59 1-571)", "T1 sequence (looked up)": "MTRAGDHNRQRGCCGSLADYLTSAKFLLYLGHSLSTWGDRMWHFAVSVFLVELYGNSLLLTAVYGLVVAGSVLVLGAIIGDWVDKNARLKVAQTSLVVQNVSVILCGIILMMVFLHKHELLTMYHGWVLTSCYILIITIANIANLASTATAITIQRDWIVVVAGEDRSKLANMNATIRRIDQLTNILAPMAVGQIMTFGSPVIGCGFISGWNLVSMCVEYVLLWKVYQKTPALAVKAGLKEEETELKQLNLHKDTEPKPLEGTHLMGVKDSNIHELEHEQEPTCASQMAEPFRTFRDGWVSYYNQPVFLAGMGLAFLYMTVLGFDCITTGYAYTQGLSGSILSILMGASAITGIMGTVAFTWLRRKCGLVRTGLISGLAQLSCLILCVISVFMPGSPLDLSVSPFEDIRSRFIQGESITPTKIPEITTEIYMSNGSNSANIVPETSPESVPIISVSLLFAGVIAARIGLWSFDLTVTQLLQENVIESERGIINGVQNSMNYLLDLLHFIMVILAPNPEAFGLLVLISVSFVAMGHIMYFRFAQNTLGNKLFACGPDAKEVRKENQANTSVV", "assay": "cell-based or functional assay", "units": {"T47D MSA IC50": "nM"}, "values": [{"binder": "XETHXPXX (N-term Isovaleric Acid; Dpa4; Lys(Ahx_Palm)6; C-term N_Pentyl_Phe)", "note": "[Isovaleric Acid-E-T-H-[Dpa]-P-[Lys(Ahx_Palm)]-N_Pentyl_Phe]", "T47D MSA IC50": 12.7}, {"binder": "Isovaleryl-KTH[Dip]PIE[β3hF]K([Ahx-Palmitoyl])-NH2 (lactam 1-7; SMILES CCCCCCCCCCCCCCCC(=O)NCCCCCC(=O)NCCCC[C@H](NC(=O)C[C@H](Cc1ccccc1)NC(=O)[C@@H]1CCC(=O)NCCCC[C@H](NC(=O)CC(C)C)C(=O)N[C@@H]([C@@H](C)O)C(=O)N[C@@H](Cc2c[nH]cn2)C(=O)N[C@@H](C(c2ccccc2)c2ccccc2)C(=O)N2CCC[C@H]2C(=O)N[C@@H]([C@@H](C)CC)C(=O)N1)C(N)=O)", "note": "[Isovaleric Acid-K-T-H-[Dpa]-P-I-E-[bhPhe]-[Lys(Ahx_Palm)]-NH2]", "T47D MSA IC50": 996}, {"binder": "Isovaleryl-KTH[Dip]PAIE[β3hF]K([Ahx-Palmitoyl])-NH2 (lactam 1-8; SMILES CCCCCCCCCCCCCCCC(=O)NCCCCCC(=O)NCCCC[C@H](NC(=O)C[C@H](Cc1ccccc1)NC(=O)[C@@H]1CCC(=O)NCCCC[C@H](NC(=O)CC(C)C)C(=O)N[C@@H]([C@@H](C)O)C(=O)N[C@@H](Cc2c[nH]cn2)C(=O)N[C@@H](C(c2ccccc2)c2ccccc2)C(=O)N2CCC[C@H]2C(=O)N[C@@H](C)C(=O)N[C@@H]([C@@H](C)CC)C(=O)N1)C(N)=O)", "note": "[Isovaleric Acid-K-T-H-[Dpa]-P-A-I-E-[bhPhe]-[Lys(Ahx_Palm)]-NH2]", "T47D MSA IC50": 3.53}, {"binder": "XETHXPAIXXXX (N-term Isovaleric Acid; Dpa4; 123 Triazole8; bhPhe9; Lys(Ahx_Palm)10; (D)Lys11; C-term NH2; cyclized A-123Triazole (side-chain C of alanine and C5 of triazole joined by a C-C bond))", "note": "[Isovaleric Acid-E-T-H-[Dpa]-P-A-I-[123 Triazole]-[bhPhe]-[Lys(Ahx_Palm)]-[(D)Lys]-NH2]", "T47D MSA IC50": 10.8}, {"binder": "Isovaleryl-ETH[Dip]PAIK([AEEA-AEEA-Ahx-C18 diacid])[β3hF]-NH2 (SMILES CC[C@H](C)[C@H](NC(=O)[C@H](C)NC(=O)[C@@H]1CCCN1C(=O)[C@@H](NC(=O)[C@H](Cc1c[nH]cn1)NC(=O)[C@@H](NC(=O)[C@H](CCC(=O)O)NC(=O)CC(C)C)[C@@H](C)O)C(c1ccccc1)c1ccccc1)C(=O)N[C@@H](CCCCNC(=O)COCCOCCNC(=O)COCCOCCNC(=O)CCCCCNC(=O)CCCCCCCCCCCCCCCCC(=O)O)C(=O)N[C@H](CC(N)=O)Cc1ccccc1)", "note": "[Isovaleric Acid-E-T-H-[Dpa]-P-A-I-[Lys(1Peg2_1Peg2_Ahx_C18_Diacid)]-[bhPhe]-NH2]", "T47D MSA IC50": 143}, {"binder": "XETHXPXX (N-term Isovaleric Acid; Dpa4; Lys(Ahx_Palm)6; C-term N_Propyl_Phe)", "note": "[Isovaleric Acid-E-T-H-[Dpa]-P-[Lys(Ahx_Palm)]-N_Propyl_Phe]", "T47D MSA IC50": 15.3}, {"binder": "XETHXPXX (N-term Isovaleric Acid; Dpa4; Lys(Ahx_Palm)6; C-term N_Ethyl_Nap)", "note": "[Isovaleric Acid-E-T-H-[Dpa]-P-[Lys(Ahx_Palm)]-N_Ethyl_Nap]", "T47D MSA IC50": 24.4}, {"binder": "Isovaleryl-ETH[Dip]PAIK[β3hF]K([Ahx-Palmitoyl])-NH2 (lactam 1-8)", "note": "[Isovaleric Acid-E-T-H-[Dpa]-P-A-I-K-[bhPhe]-[Lys(Ahx_Palm)]-NH2]", "T47D MSA IC50": 2.14}, {"binder": "Isovaleryl-ETH[Dip]P[Abu]IK([PEG12-C18 diacid])[β3hF][dK]C-NH2 (thioether 6-11)", "note": "[Isovaleric Acid-E-T-H-[Dpa]-P-Abu-I-[Lys(PEG12_C18_Diacid)]-[bhPhe]-[(D)Lys]-[Cys]-NH2]", "T47D MSA IC50": 388}, {"binder": "XETHXPXX (N-term Isovaleric Acid; Dpa4; Lys(bAla_Palm)6; C-term N_Butyl_Phe)", "note": "[Isovaleric Acid-E-T-H-[Dpa]-P-[Lys(bAla_Palm-N_Butyl_Phe]", "T47D MSA IC50": 46.1}, {"binder": "XETHXPXX (N-term Isovaleric Acid; Dpa4; Lys(IsoGlu_Palm)6; C-term N_Butyl_Phe)", "note": "[Isovaleric Acid-E-T-H-[Dpa]-P-[Lys(IsoGlu_Palm-N_Butyl_Phe]", "T47D MSA IC50": 179}, {"binder": "XETHXPXX (N-term Cyclohexanoic_Acid; Dpa4; Lys(Ahx_Palm)6; C-term N_Butyl_Phe)", "note": "[Cyclohexanoic_Acid-E-T-H-[Dpa]-P-[Lys(Ahx_Palm)]-N_Butyl_Phe]", "T47D MSA IC50": 54.3}]}]}
